Measured values published in the supplement of paper PMC10567573.
± gives the standard deviation.

Assay: protein stability index of a GFP-peptide fusion (GPS, HEK-293T) (PSI 1-6); higher = more stable
[1] = treatment: DMSO, c terminus: a fixed tail appended
[2] = treatment: MLN4924 1 uM, 8 h, c terminus: a fixed tail appended
[3] = treatment: DMSO, c terminus: native
[4] = treatment: MLN4924 1 uM, 8 h, c terminus: native
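Note: 24-mer peptide tiles fused after GFP, lentivirally expressed, FACS-sorted into six equal bins by GFP/DsRed ratio, decoded by Illumina sequencing, PSI is the read-weighted mean bin number.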

Sequence | protein stability index [1] | protein stability index [2] | protein stability index [3] | protein stability index [4]
AATTSKEQEPIGTDLDAVRTPEPL [MYBL2] | 5.46 ± 0.3 | 5.41 ± 0.25 | – | –
KVPNHYIAIPEWFLSENATVAAET [CPXM2] | 3.22 ± 0.43 | 3.32 ± 0.47 | – | –
LINYQDDAELATRAIPELTKLLND [CTNNB1] | 3.61 ± 0.37 | 3.59 ± 0.31 | – | –
RCINDPYLEVLETMDNKKGRRYEA [CLCN6] | 3.82 ± 0.15 | 4.03 ± 0.32 | – | –
NYSSSQDALISVSYTIITPLFNPM [OR10K2] | 3.07 ± 0.46 | 2.92 ± 0.33 | – | –
MENQVLTPHVYWAQRHRELYLRVE [HACD3] | 2.4 ± 0.31 | 2.35 ± 0.27 | – | –
RDRLRSRLEALSTERDEIEDVKCQ [TRIM15] | 5.32 ± 0.15 | 5.44 ± 0.35 | – | –
FVALKSVRVPNGGGGGGGLPISTV [CDK4] | 2.52 ± 0.24 | 2.41 ± 0.33 | – | –
RVSRKPTAAMRCMCPLYDPNRQLW [GAN] | 2.48 ± 0.67 | 2.34 ± 0.47 | – | –
VENELMISYLMFLQILVYFSFMSW [FAM98B] | 2.94 ± 0.45 | 3.14 ± 0.05 | – | –
NTFIALALQTLLTLIVVDASGLGL [SLC19A2] | 3.36 ± 0.57 | 3.3 ± 0.27 | – | –
LAPGPAPTRCLPGHKEEEDGEGAG [ESRRA] | 5.45 ± 0.16 | 5.48 ± 0.081 | – | –
SLPSPSSSGHQNRRFSSEDLEDPL [FBF1] | 5.45 ± 0.3 | 5.46 ± 0.29 | – | –
ADLELSLPECLEYEEEFDYETESE [GNAS] | 5.41 ± 0.24 | 5.47 ± 0.16 | – | –
LLKIHEVSTVSHADADCFVCVFLS [CASP6] | 2.4 ± 0.17 | 2.4 ± 0.41 | – | –
LAVFARCLAGCEGAHEQVDFKDFY [P3H4] | 1.94 ± 0.45 | 2.02 ± 0.31 | – | –
GGLSLHDYKLLKPSLAVNLADPYR [JUNB] | 2.65 ± 0.13 | 2.76 ± 0.098 | – | –
PRALIFSTDDFFFREDGAYEFNPD [N4BP2L1] | 2.95 ± 0.41 | 3.66 ± 0.48 | – | –
VVCGMFGFPGERTYNTKVYKMFAS [LOXL2] | 2.66 ± 1.1 | 2.63 ± 0.2 | – | –
SQSPSVSQLSVLSLSGVMLTDVSP [PRAME] | 3 ± 0.49 | 3 ± 0.33 | – | –
EFTELLKVMIHPDPERRPSAMALV [WEE1] | 2.23 ± 0.35 | 2.06 ± 0.23 | – | –
SVSCCHGNTLLAVRSVTDEPVPP [NEK8] | – | – | 3.38 ± 0.17 | 3.48 ± 0.077
SDARVVKDMATGKSKGYGFVSFFN [TIA1] | 2.79 ± 0.35 | 2.77 ± 0.16 | – | –

Sequence | protein stability index [1] | protein stability index [2] | protein stability index [3] | protein stability index [4]
REQGPREQEPELSFLKQKEQLEAE [PBXIP1] | 5.5 ± 0.35 | 5.58 ± 0.33 | – | –
SQVCRVAYEIMQTLHPDASANFHS [FUT8] | 2.34 ± 0.36 | 2.27 ± 0.42 | – | –
GQPAPPQLLLGRLFRWPDLQHAVE [SMAD6] | 2.63 ± 0.1 | 2.82 ± 0.39 | – | –
MKVEAKSHLQWQESRLKRSNPLAR [ZSCAN9] | 3.35 ± 0.33 | 3.67 ± 0.19 | – | –
MYILSPAVLRRIQLQPTSIEKEVF [GMPPB] | 2.29 ± 0.42 | 2.24 ± 0.41 | – | –
ELEGTEELCCVAELDNPMQQKWTK [C2CD2L] | 4.58 ± 0.45 | 4.77 ± 0.28 | – | –
QNPTASYYNVVLLRYQFSRPGPQS [FCHO1] | 2.44 ± 0.46 | 2.41 ± 0.27 | – | –
LKDGYRLDEIPDDEDLDLIPPKSV [FAM219A] | 5.16 ± 0.15 | 5.3 ± 0.13 | – | –
FAIGARARAEAEQMAKKAEAFQLY [FLOT1] | 2.78 ± 0.42 | 3.02 ± 0.58 | – | –
SFARDLPDFPSINMDPAGLDDEDD [RETREG3] | 5.41 ± 0.32 | 5.49 ± 0.098 | – | –
DYVQLENQWETPPEDLQTDLAKLV [ZNF449] | 4.19 ± 0.3 | 4.31 ± 0.059 | – | –
QKPLCASDGRTFLSRCEFQRAKCK [SMOC2] | 3.14 ± 0.52 | 3.6 ± 0.88 | – | –
SITHYRPVSASRSSLDLSYYPTSS [EMD] | 3 ± 0.26 | 3.23 ± 0.19 | – | –
DRNVVTIFSAPNYCYRCGNQAAIM [PPP2CA] | 2.7 ± 0.79 | 2.11 ± 0.23 | – | –
ASDIMEPNLTYVYPHTRIQSLVSI [CLCN6] | 2.38 ± 0.49 | 2.34 ± 0.38 | – | –
TTSDIPHMLNQVESKVKDILSKVQ [FAM98B] | 2.48 ± 0.38 | 2.32 ± 0.32 | – | –
AGPELDEMLREVDLNGDGTVDFDE [CABP4] | 5.67 ± 0.23 | 5.36 ± 0.11 | – | –
EFPQFEPQRYPACAQMLPPNLSPH [TRAF3IP2] | 3.22 ± 0.18 | 3.1 ± 0.36 | – | –
ANRWSFDGIDRWIKEIDEHAPGVP [RAB40B] | 3.92 ± 0.076 | 3.92 ± 0.12 | – | –
PVVKKKGVKRKADTTTPTTSAITA [BRD3] | 5.03 ± 0.29 | 5.01 ± 0.19 | – | –
GDTSATESGDEVPVELYTAFQHTP [KMT2E] | 4.97 ± 0.18 | 5.04 ± 0.17 | – | –
ETQTQRGGEFQCGLEAASVYSDHT [RNF180] | 2.33 ± 0.16 | 2.2 ± 0.078 | – | –
HYICTLKQPHLLLEKYSYYLISG [PNLIPRP1] | – | – | 3.31 ± 0.66 | 3.39 ± 0.14

Sequence | protein stability index [1] | protein stability index [2] | protein stability index [3] | protein stability index [4]
IRSPRPASVATWAIFVHRVGQPSI [CTBP1-DT] | 2.46 ± 0.5 | 2.47 ± 0.31 | – | –
EEKERIGQFVFARDAKAAMAGRLM [AASDHPPT] | 3.36 ± 0.19 | 3.43 ± 0.32 | – | –
EISRGEYLYTYDSQITDSEHNSSL [ZNF8] | 4.29 ± 0.49 | 4.25 ± 0.54 | – | –
LETSGNPNGRYGSGYLLASTPESE [SLC6A17] | 4.93 ± 0.14 | 4.91 ± 0.26 | – | –
TCAPSVSYFKCVQKEVLPSMRKIV [CCND1] | 2.33 ± 0.13 | 2.35 ± 0.33 | – | –
SLVWGMVCGQNWGIVEAMVVCRQL [LOXL2] | 2.46 ± 0.82 | 3.07 ± 0.36 | – | –
DDALEDFKKVLDLNPGFQDATLSL [TTC32] | 3.73 ± 0.32 | 3.85 ± 0.32 | – | –
LAFFPFLHRLFREKSLDQLKSISA [PHTF1] | 2.46 ± 0.3 | 2.26 ± 0.35 | – | –
NTVERYNPQENRWHTIAPMGTRRK [KLHL20] | 4.43 ± 0.15 | 4.59 ± 0.17 | – | –
LKIPQVRGMDLSWESRTGDQYSYS [LCOR] | 2.87 ± 0.25 | 2.86 ± 0.31 | – | –
AAATTTTTTSAATATTAPPALDIF [SNAP91] | 4.45 ± 0.24 | 4.61 ± 0.16 | – | –
RDPSLRPARTVLVGSLSWLRKQLQ | 2.75 ± 0.51 | 3.19 ± 0.48 | – | –
SLLGDDVFSTMAGLEEADAEVSVI [FBF1] | 3.56 ± 0.26 | 3.5 ± 0.22 | – | –
LAKEIRVKAEPFIKWLKEAEEESS [EIF5] | 3.33 ± 0.2 | 3.9 ± 0.52 | – | –
APRPGPPAGTPPPTARHFQEHPRQ [MOSPD3] | 4.99 ± 0.36 | 4.86 ± 0.35 | – | –
MSEWSECTAKCGERSVVTRDIRCS [ADAMTSL2] | 3.87 ± 0.45 | 3.74 ± 0.051 | – | –
GAFETVLASAYTGRLSMAAADIVN [ZBTB22] | 2.88 ± 0.61 | 2.91 ± 0.59 | – | –
AFLLLPLPDELGSQLPQVLHVSLG [MOSPD3] | 2.96 ± 0.76 | 2.73 ± 0.49 | – | –
EWDKNKSAFPFSDKLGELSDKIGS [CLINT1] | 3.57 ± 0.37 | 3.6 ± 0.22 | – | –
RSRYDGHRIWMYNCHIGGSFSEET [LOXL2] | 2.17 ± 0.35 | 2.72 ± 0.35 | – | –
ELIILYEKKGLHEKALQVLVDQSK [VPS39] | 2.26 ± 0.25 | 2.53 ± 0.22 | – | –
HTGERPYECTVCKKRFTRRSHLIG [ZNF449] | 2.67 ± 0.36 | 3.17 ± 0.88 | – | –
LHRTEGELQKIVQAGDKDLDGQLD [SLC25A25] | 5.58 ± 0.21 | 5.55 ± 0.31 | – | –

Sequence | protein stability index [1] | protein stability index [2] | protein stability index [3] | protein stability index [4]
TALGDKKSLEGDLEDLKDQIAQLE [LMNB1] | 5.21 ± 0.24 | 5.27 ± 0.24 | – | –
PGSASLAQSRLEDPGADSEKSTVV [DLX1] | 5.49 ± 0.38 | 5.36 ± 0.26 | – | –
DGAGRTWQDSDTVKLLVDLELSYG [TOR1AIP2] | 2.37 ± 0.48 | 2.79 ± 0.43 | – | –
PSDPLVSIGALISKAHLEKVRSYV [ALDH8A1] | 2.05 ± 0.079 | 2.12 ± 0.13 | – | –
SSKLVTKKAPQPAKPRLAERMTTR [HDAC6] | 4.32 ± 0.14 | 4.47 ± 0.38 | – | –
YSNLLVRDFRPTDQEEIKTLERYM [TENT5C] | 3.08 ± 0.22 | 3.35 ± 0.36 | – | –
SKQSPPMASSPIQPRKGGADWLGL [FBF1] | 3.23 ± 0.47 | 3.48 ± 0.42 | – | –
PSSNNKELFYRVNYIGTKNVIETC [NSDHL] | 2.7 ± 0.2 | 2.55 ± 0.18 | – | –
GTRGRLESAQATFQAHRDKYEKLR [ARFIP2] | 4.27 ± 0.31 | 4.44 ± 0.28 | – | –
AALEEESRQRQSRMEKGEPYMSIQ [SMARCE1] | 4.88 ± 0.34 | 4.88 ± 0.22 | – | –
ITFPSLESCEEKNQLILTASADRT [WDR41] | 4.02 ± 0.29 | 4.1 ± 0.35 | – | –
MTPDIHELVENIKSVLKSDEEHME [FAM189A2] | 4.72 ± 0.24 | 4.39 ± 0.66 | – | –
AGEGAEALARNLLVDGETGESFPA [NFE2L1] | 5.37 ± 0.09 | 5.41 ± 0.21 | – | –
FILGRLCVPVFANMSREPFSTRAL [SOAT2] | 2.94 ± 0.56 | 2.56 ± 0.52 | – | –
FPEELHRKAALEQDLAFWYGPRWQ [HMOX1] | 2.3 ± 0.25 | 2.62 ± 0.31 | – | –
RKLQKEQQRSKDLESRQRSLEQAN [TFE3] | 5.09 ± 0.3 | 5.11 ± 0.27 | – | –
FTDPFFIVETLCIIWFSFELVVRF [KCNA1] | 3.26 ± 0.13 | 3.18 ± 0.69 | – | –
LQKQGKYSGVGLLDHMVSIYLLI [RNF180] | – | – | 2.31 ± 0.92 | 2.88 ± 0.81
SMVVPLLSLHVKSLGASPTVAGIV [MFSD9] | 2.95 ± 0.36 | 2.4 ± 0.46 | – | –
VGEVPYWVLEPVLEGWRPDQLYRR [ELOA2] | 1.97 ± 0.33 | 2.32 ± 0.33 | – | –
